Experimental findings from patent US10251942B2, “Immunity-inducing agent” (TORAY INDUSTRIES, INC., priority 2009, dated 2019) are described below.

Experiment [1] relates to murine neuroblastoma cell line N2a. The experiment is described as follows: Anti-tumor effect of recombinant murine PDS5A protein in tumor-bearing mouse, therapeutic model, N2a. Format: in vivo, A/J mice. As for the experimental part: (§1) The murine neuroblastoma cell line N2a was subcutaneously transplanted to A/J mice (7 weeks old, male, purchased from Japan SLC) in an amount of 1×10^6 cells. When the tumor volume reached an average of 50 to 100 mm^3 (typically 7 days after the inoculation of the tumor), the mice were randomly divided into groups each of which contains 10 individuals, and subjected to evaluation of the anti-tumor effect of the recombinant murine PDS5A protein (therapeutic model). With 100 μg (0.5 ml) of the recombinant murine PDS5A protein purified as described above, 50 μg of poly I:C was mixed to prepare a therapeutic agent for cancer, and this therapeutic agent was subcutaneously administered to the tumor-bearing mice a total of 3 times at intervals of 1 week. […] On the other hand, in the negative control group to which PBS(−) was administered and the group to which poly I:C alone (50 μg) was administered, the mean tumor volumes on Day 31 after the administration were 1657 mm^3 and 932 mm^3, respectively.

Experiment [2] has the same test system. The experiment is described as follows: Anti-tumor effect of recombinant murine PDS5A protein, prophylactic model, N2a. Type of experiment: in vivo, A/J mice. On the procedure: (§2) Further, a therapeutic agent for cancer wherein 100 μg (0.5 ml) of the recombinant murine PDS5A protein and 50 μg poly I:C were mixed was prepared, and subcutaneously administered to A/J mice a total of 3 times at intervals of 1 week, followed by transplantation of 1×10^6 N2a cells to the mice and evaluation of the anti-tumor effect (prophylactic model). Ten individuals were included in each group, and, as controls for comparison, a negative control group to which PBS(−) was administered and a group to which poly I:C alone (50 μg) was administered were provided. […] On the other hand, in the negative control group to which PBS(−) was administered and the group to which poly I:C alone (50 μg) was administered, the mean tumor volumes on Day 40 after the administration were 1989 mm^3 and 1843 mm^3, respectively.

For experiment [3], the system named is colon cancer cell line CT26. Kind of experiment: Anti-tumor effect of recombinant murine PDS5A protein in tumor-bearing mouse, therapeutic model, CT26. Format: in vivo, Balb/c mice. As for the experimental part: as §1, with “same experiment was carried out also for a colon cancer model. The colon cancer” for “murine neuroblastoma”, “CT26” for “N2a”, “Balb/c” for “A/J”, “24” for “31”, “1449” for “1657”, “835” for “932”

Experiment [4] deals with colon cancer cell line CT26. Kind of experiment: Anti-tumor effect of recombinant murine PDS5A protein, prophylactic model, CT26. Type of experiment: in vivo, Balb/c mice. On the procedure:
as §2, with “Balb/c” for “A/J”, “CT26” for “N2a”, “31” for “40”, “1781” for “1989”, “1675” for “1843”

A further experiment deals with mammary gland tumor. Kind of experiment: Anti-tumor effect of recombinant PDS5A protein in tumor-bearing dog, mammary gland tumor. Conditions: 500 μg protein with same amount of Freund's incomplete adjuvant, regional lymph node near tumor, 3 times at 1-week intervals; tumor about 500 mm^3 (dog-derived) or 1000 mm^3 (human-derived) at administration. Format: in vivo. On the procedure: The anti-tumor effect of the recombinant protein described in Example 5 below in 3 individuals of tumor-bearing patient dogs (3 individuals having a mammary gland tumor) having a tumor mass in the epidermis was evaluated. Before administration, the antibody titer against the recombinant protein in the serum of each patient dog was measured by the method described in Example 5 (3), and, as a result, an antibody titer higher than that of a healthy dog was detected.
With 500 μg (2.5 ml) each of the recombinant PDS5A proteins (dog-derived and human-derived) purified as described above, the same amount of Freund's incomplete adjuvant (manufactured by Wako Pure Chemical Industries, Ltd.) was mixed to prepare 2 kinds of therapeutic agents for cancer, each of which was administered to a regional lymph node in the vicinity of the tumor a total of 3 times at 1-week intervals. […] On the other hand, in the negative control group to which PBS(−) was administered, the tumor volume, which had been about 800 mm^3 at the time of administration of PBS, became 1625 mm^3 on Day 21 after the administration.

The mark [5] stands for this setting: Day 31 after the administration, poly I:C alone 50 μg.

As to poly I:C [reference compound], the mean tumor volume is given as 932 mm^3 in experiment [1] (setting [5]); 1843 mm^3 in experiment [2] (Day 40 after the administration, poly I:C alone 50 μg); 835 mm^3 in experiment [3] (Day 24 after the administration, poly I:C alone 50 μg); 1675 mm^3 in experiment [4] (setting [5]).

B1: recombinant murine PDS5A protein: full-length murine PDS5A (SEQ ID NO:6) expressed in E. coli, His tag cleaved; given mixed with poly I:C (protein, listed as Mus musculus)
chain: MDFTQPKPATALCGVVSADGKIAYPPGVKEITDKITTDEMIKRLKMVVKTFMDMDQDSEDEKQQYLPLALHLASEFFLRNPNKDVRLLVACCLADIFRIYAPEAPYTSHDKLKDIFLFITRQLKGLEDTKSPQFNRYFYLLENLAWVKSYNICFELEDCNEIFIQLFRTLFSVINNSHNTKVQMHMLDLMSSIIMEGDGVTQELLDSILINLIPAHKNLNKQSFDLAKVLLKRTVQTIEACIANFFNQVLVLGRSSVSDLSEHVFDLIQELFAIDPQLLLSVMPQLEFKLKSNDGEERLAVVRLLAKLFGSKDSDLATQNRPLWQCFLGRFNDIHVPVRLESVKFASHCLMNHPDLAKDLTEYLKVRSHDPEEAIRHDVIVTIITAAKRDLALVNDQLLGFVRERTLDKRWRVRKEAMMGLAQLYKKYCLHGEAGKEAAEKVSWIKDKLLHIYYQNSIDDKLLVEKIFAQYLVPHNLETEERMKCLYYLYASLDPNAVKALNEMWKCQNMLRSHVRELLDLHKQPTSEANCSAMFGKLMTIAKNLPDPGKAQDFVKKFNQVLGDDEKLRSQLELLISPTCSCKQADVCVREIARKLANPKQPTNPFLEMVKFLLERIAPVHIDSEAISALVKLMNKSIEGTADDEEEGVSPDSAIRSGLELLKVLSFTHPTSFHSAETYESLLQCLRMEDDKVAEAAIQIFRNTGHKIETDLPQIRSTLIPILHQKAKRGTPHQAKQAVHCIHAIFSNKEVQLAQIFEPLSRSLNADVPEQLITPLVSLGHISMLAPDQFASPMKSVVANFIVKDLLMNDRSTGEKNGKLWSPDEEVSPEVLAKVQAIKLLVRWLLGMKNNQSKSANSTLRLLSAMLVSEGDLTEQKRISKSDMSRLRLAAGSAIMKLAQEPCYHEIITPEQFQLCALVINDECYQVRQIFAQKLHKALVKLLLPLEYMAIFALCAKDPVKERRAHARQCLLKNISIRREYIKQNPMATEKLLSLLPEYVVPYMIHLLAHDPDFTRSQDVDQLRDIKECLWFMLEVLMTKNENNSHAFMKKMAENIKLTRDAQSPDESKTNEKLYTVCDVALCVINSKSALCNADSPKDPVLPMKFFTQPEKDFCNDKSYISEETRVLLLTGKPKPTGVLGTVNKPLSATGRKPYVRSAGTETGSNINANSELSPSAGSRSREQSSEASETGVSENEENPVRIISVTPVKNIDTVKNKEINSDQSTQGNISSDRGKKRIVTAAGAENIQKPDEKVDESGPPAPSKPRRGRRPKSESQGNATKNDDLNKPVSKGRKRAAGSQESLEAGNAKAPKLQDGAKKAVPAERQIDLQR
modifications: mixed with poly I:C
In the case of B1, the tumor outcome in experiment [1] (Day 31, 100 μg protein mixed with 50 μg poly I:C, subcutaneous, 3 times at intervals of 1 week, PBS(−) group 1657 mm^3) is on record as “complete regression of the tumor”; in experiment [2] (Day 40, 100 μg protein mixed with 50 μg poly I:C, subcutaneous, 3 times at intervals of 1 week before N2a transplantation, PBS(−) group 1989 mm^3), “no development of a tumor”; in experiment [3] (Day 24, 100 μg protein mixed with 50 μg poly I:C, subcutaneous, 3 times at intervals of 1 week, PBS(−) group 1449 mm^3) it was “complete regression of the tumor”; in experiment [4] (Day 31, 100 μg protein mixed with 50 μg poly I:C, subcutaneous, 3 times at intervals of 1 week before CT26 transplantation, PBS(−) group 1781 mm^3), “no development of a tumor”.

B2: human PDS5A protein (SEQ ID NO:44): full-length human PDS5A (SEQ ID NO:44) expressed in E. coli; given mixed with Freund's incomplete adjuvant (protein, listed as Homo sapiens)
chain: MDFTAQPKPATALCGVVSADGKIAYPPGVKEITDKITTDEMIKRLKMVVKTFMDMDQDSEDEKQQYLPLALHLASEFFLRNPNKDVRLLVACCLADIFRIYAPEAPYTSHDKLKDIFLFITRQLKGLEDTKSPQFNRYFYLLENLAWVKSYNICFELEDCNEIFIQLFRTLFSVINNSHNKKVQMHMLDLMSSIIMEGDGVTQELLDSILINLIPAHKNLNKQSFDLAKVLLKRTVQTIEACIANFFNQVLVLGRSSVSDLSEHVFDLIQELFAIDPHLLLSVMPQLEFKLKSNDGEERLAVVRLLAKLFGSKDSDLATQNRPLWQCFLGRFNDIHVPVRLESVKFASHCLMNHPDLAKDLTEYLKVRSHDPEEAIRHDVIVTIITAAKRDLALVNDQLLGFVRERTLDKRWRVRKEAMMGLAQLYKKYCLHGEAGKEAAEKVSWIKDKLLHIYYQNSIDDKLLVEKIFAQYLVPHNLETEERMKCLYYLYASLDPNAVKALNEMWKCQNMLRSHVRELLDLHKQPTSEANCSAMFGKLMTIAKNLPDPGKAQDFVKKFNQVLGDDEKLRSQLELLISPTCSCKQADICVREIARKLANPKQPTNPFLEMVKFLLERIAPVHIDSEAISALVKLMNKSIEGTADDEEEGVSPDTAIRSGLELLKVLSFTHPTSFHSAETYESLLQCLRMEDDKVAEAAIQIFRNTGHKIETDLPQIRSTLIPILHQKAKRGTPHQAKQAVHCIHAIFTNKEVQLAQIFEPLSRSLNADVPEQLITPLVSLGHISMLAPDQFASPMKSVVANFIVKDLLMNDRSTGEKNGKLWSPDEEVSPEVLAKVQAIKLLVRWLLGMKNNQSKSANSTLRLLSAMLVSEGDLTEQKRISKSDMSRLRLAAGSAIMKLAQEPCYHEIITPEQFQLCALVINDECYQVRQIFAQKLHKALVKLLLPLEYMAIFALCAKDPVKERRAHARQCLLKNISIRREYIKQNPMATEKLLSLLPEYVVPYMIHLLAHDPDFTRSQDVDQLRDIKECLWFMLEVLMTKNENNSHAFMKKMAENIKLTRDAQSPDESKTNEKLYTVCDVALCVINSKSALCNADSPKDPVLPMKFFTQPEKDFCNDKSYISEETRVLLLTGKPKPAGVLGAVNKPLSATGRKPYVRSTGTETGSNINVNSELNPSTGNRSREQSSEAAETGVSENEENPVRIISVTPVKNIDPVKNKEINSDQATQGNISSDRGKKRTVTAAGAENIQQKTDEKVDESGPPAPSKPRRGRRPKSESQGNATKNDDLNKPINKGRKRAAVGQESPGGLEAGNAKAPKLQDLAKKAAPAERQIDLQR
modifications: mixed with Freund's incomplete adjuvant
On to B2, for which, in the experiment with mammary gland tumor, the “day on which complete regression of the tumor was achieved” value is 21 days.
